Laboratory results from the supplement of paper PMC12764529.
± gives the half width of the 95% confidence interval.

Key:
[1] = folding stability dG unfold from trypsin proteolysis; higher = more stable
Outline: (§1)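 Designed mini-proteins with no cysteine and under 80 residues were kept only if AlphaFold2 dimer inter-PAE was above 15. In a PA-tagged cDNA display construct, they were digested with trypsin and chymotrypsin and then sequenced. K50 was inferred by Bayesian fitting of counts, and unfolding free energy was derived per protease or combined against a sequence-predicted unfolded-state K50 and a shared folded-state K50.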

[2] = folding stability dG unfold from chymotrypsin proteolysis; higher = more stable
Outline: as §1

[3] = folding stability dG unfold (combined trypsin and chymotrypsin); higher = more stable
Outline: as §1

Sequence	folding stability dG unfold [1]	folding stability dG unfold [2]	folding stability dG unfold [3]
SSEELRELILNEAAKLGVKIKEIKVKEDPSTNTVSIEITVPDGKVIKLSFTRTSDGGYSYDINELKAGLESA [r9_85_JUSTAS]	5.35 ± 0.35 kcal/mol	6.2 ± 0.14 kcal/mol	> 6 kcal/mol
SSISIPGLTEEKAAELAKRLRELFPGAEVKTTTFPEKKVVVVDVTLPVVDADGKLVGTVKLRLVLVVEDDSA [r9_378_TrMRF]	4.6 ± 0.19 kcal/mol	4.55 ± 0.21 kcal/mol	4.84 ± 0.34 kcal/mol
SSISPSSTLTFSKPFPDDDINAVKEFAEKLAKEIGPDVSVVKIEKDPNNPNKVTITISVPGTSITVNFSNSA [r9_1079_JUSTAS]	1.09 ± 0.054 kcal/mol	0.664 ± 0.26 kcal/mol	1.01 ± 0.14 kcal/mol
SSKIKEFIIKLPEKNKYYKIIVTPTEIYIYDENGKKIKKFSIPKNKKIKKIDIKIDKKKNKLIIKVYLEKSA [r9_939_TrMRF]	4.14 ± 0.23 kcal/mol	4.54 ± 0.098 kcal/mol	4.42 ± 0.21 kcal/mol
SSKTVTVTTEEEEKEAREKIKELVKPGKSVDVEITMTGPDGTRTRRTYKITTNPDGTITIEETETPLPPPSA [r9_1023_JUSTAS]	1.5 ± 0.034 kcal/mol	2.43 ± 0.057 kcal/mol	2.17 ± 0.21 kcal/mol
SSLEIPPEVLAEIKKAALEGDDEKVKELLKELGFTKVEIKYEKLDGKVKLTIKVEHPEGPATITFSDELLSA [r9_783_JUSTAS]	3.36 ± 0.18 kcal/mol	4.15 ± 0.15 kcal/mol	4.23 ± 0.28 kcal/mol
SSPEEDLEEIEITVTNPNDPRPSFVKVTRSPEGYEATFTLPDGKTVKIPPELGLEEIKKLPSSFTITILPSA [r9_781_JUSTAS]	0.0376 ± 0.059 kcal/mol	0.83 ± 0.087 kcal/mol	0.561 ± 0.064 kcal/mol
SSPMTVEELLERHPNLLVVRLPDGTVYLFDPEKETLYTVTPGTGEVTVTPLSLEELLALLPAAGHEVLPLSA [r9_721_JUSTAS]	1.74 ± 0.1 kcal/mol	2.14 ± 0.092 kcal/mol	1.99 ± 0.11 kcal/mol
SSSAEIRAYRFPDFWLVEIDLRDGDKLVGTAVFPNDGSVSLEEVAEAFRAAHPDFDVEISAIEPVPPPPPSA [r9_364_TrMRF]	1.71 ± 0.064 kcal/mol	2.08 ± 0.063 kcal/mol	2.01 ± 0.12 kcal/mol
SSSGTDPLTVRVTVTLTDPSTGKETLLEYEVEVPPGTPVEVELPDVPPSASVTVEVYDPGGVRIGTRTLPSA [r9_478_JUSTAS]	1.81 ± 0.14 kcal/mol	1.78 ± 0.11 kcal/mol	1.95 ± 0.4 kcal/mol
SSSPSGLSVTSSTVTKVETDPGPGNVTTVTVTTLNNSVLIIPLPGKPLVIPTNTTVETTYTVPPDDPSPASA [r9_531_JUSTAS]	1.31 ± 0.073 kcal/mol	0.87 ± 0.11 kcal/mol	1.15 ± 0.074 kcal/mol
SSSSMKTVFDPNRPYPRTVLVTFLPDGTVVITAPGKKLSTVKVEIEPPPPLELRPRVSPNGERSPGYLRLGS [r1_496_JUSTAS]	1.1 ± 0.18 kcal/mol	1.76 ± 0.14 kcal/mol	1.47 ± 0.16 kcal/mol
SSSSTLVSSYTLTLKDEKGNEITLKVDVYKFPSGSYRVEITRPDGTVTEYEFPASEPPTEEKIKELALKKSA [r9_616_JUSTAS]	4.47 ± 0.46 kcal/mol	6.01 ± 0.13 kcal/mol	> 6 kcal/mol
SSWEKLSTLTLPSTGLTVTFYYDPSTNSTAVKVTDGAGPELSEKVLSDDETFTLPDGVSIKLPKGAEPASSA [r9_340_JUSTAS]	0.334 ± 0.021 kcal/mol	1.45 ± 0.077 kcal/mol	1.02 ± 0.081 kcal/mol
SSYTVDVTFTDPSPPKPTHRTLSSIEDAIAEAKAELPPGSVATITVTYPDGSTETITIVGDGVVETKKTASA [r9_482_JUSTAS]	-0.116 ± 0.056 kcal/mol	0.917 ± 0.039 kcal/mol	0.561 ± 0.081 kcal/mol
STIRITLPKEELSPELLEALAKAPGLSEEELRDRLTVEEVDGEVVITLSPEVLEELRKRNPELLEALEKASA [r9_160_TrROS_Hall]	3.32 ± 0.093 kcal/mol	1.91 ± 0.054 kcal/mol	2.59 ± 0.11 kcal/mol
STITIEVETPEELEKALVEAEKLVEKGKDVKIEIFVRNENGETLKLTFDIKQLPDGIPVLEIEVEPVPPPSA [r9_1023_TrMRF]	1.89 ± 0.1 kcal/mol	3.1 ± 0.041 kcal/mol	2.74 ± 0.13 kcal/mol
